Laboratory results from patent publication US7968692B2, “Elongase genes and uses thereof” (Abbott Laboratories, priority 1998, dated 2011).

Columns and labels:
Assay type in all cases: cell-based, Saccharomyces cerevisiae
S. cerevisiae 334 [1] = assay: T. aureum elongase TELO1 activity in yeast
Protocol: The constructs pRAT-4-A1 through pRAT-4-D1 were transformed into S. cerevisiae 334 (Hoveland et al., supra) and screened for elongase activity. S. cerevisiae 334 containing the unaltered pYX242 vector was used as a negative control. The cultures were grown for 48 hours at 24° C., in selective media (Ausubel et al., supra), in the presence of 25 (3)M of GLA or EPA. In this study, DGLA or ω3-docosapentaenoic acid (DPA, 22:5n-3), respectively, was the predicted product of the elongase activity. […] This was expected in that the cDNA sequence of pRAT-4-A3 had several stops at the 5′ end of the sequence, which would result in a truncated version of the translated enzyme (FIG. 76). Although the DGLA level was very low for 334(pRAT-4-A2), the GLA level was the lowest in this sample; therefore, the conversion level of the fatty acid to its elongated form was significant at 28.4%. What was not expected was that there was definite substrate specificity among the expressed enzymes. […]
To further confirm the substrate specificity of TELO1p, the recombinant yeast strain 334(pRAT-4-A7) was grown in minimal media containing 25 μM of various PUFAs. […] The levels of these fatty acids were 1.07% (C20:2n-6), 5.84% (DGLA), and 0.76% (ADA), respectively, of the total fatty acids in the lysates of 334(pRAT-4-A7). […] TELO1p is also involved in the elongation of n-3 PUFAs ALA, STA, and EPA (FIG. 88). […] The levels of these fatty acids were 2.71% ETrA, 4.19% (ETA), and 1.99% (DPA), respectively, of the total fatty acids in the strain containing the TELO1 sequence. […] When STA was added as a substrate, there was also an accumulation of DTA in the culture. The level of this fatty acid was 0.74%, which represented 15.0% conversion of ETA, the two-carbon chain elongated product from substrate STA.

S. cerevisiae 334 [2] = assay: Mouse elongase MELO7 activity in yeast; details: for amount of TPA: may not be significant
Protocol: The construct pRAE-87 was transformed into S. cerevisiae 334 (Hoveland et al., supra) and screened for elongase activity. The negative control strain was S. cerevisiae 334 containing pYX242 vector. The cultures were grown for 42-48 hours at 30° C., in selective media (Ausubel et al., supra), in the presence of 25 _M of GLA, AA, STA, EPA, DPA, or ADA. […] The levels of these fatty acids were 4.1% (DGLA), 6.33% (ADA), 3.4% (ETA), and 6.18% (DPA), respectively, of the total fatty acids in the strain containing the pRAE-87 sequence. […] MELO7 protein (MELO7) was not involved in the elongation of ADA. MELO7p also appeared to be involved in further elongation of the fatty acid DPA produced by two-carbon elongation to TPA when EPA was the added substrate, and when DPA was added. However, the small amounts of the product fatty acids (0.27% and 0.25% of TPA) may not be significant.

S. cerevisiae 334 [3] = assay: Mouse elongase MELO4 activity in yeast
Protocol: The construct pRAE-84 was transformed into S. cerevisiae 334 (Hoveland et al., supra) and screened for elongase activity. The negative control strain was S. cerevisiae 334 containing pYX242 vector. The cultures were grown for 42-48 hours at 30° C., in selective media (Ausubel et al., supra), in the presence of 25 μM of GLA, AA, ADA, STA, EPA, or DPA. […] However, there were accumulations of ADA, ω6-tetracosatetraenoic acid (TTA, C24:4n-6), ETA, DPA, and ω3-tetracosapentaenoic acid (TPA, C24:5n-3), respectively (FIG. 56). The n-6 fatty acid substrate AA was converted to ADA, which was subsequently converted to TTA, and the n-3 fatty acid EPA was converted to DPA, which was subsequently converted to TPA. The levels of these fatty acids were 0.64% (ADA), 1.07% (TTA), 1.47% (DPA), and 7.06% (TPA), respectively, of the total fatty acids in the strain containing the pRAE-84 sequence. […] The expression of MELO4 in yeast results in the conversion of C20 and C22 fatty acids to the respective elongated products. The conversion rate of C22 to C24 fatty acids is much greater when the exogenously added substrate is […].
To further confirm the substrate specificity of MELO4 protein (MELO4), the recombinant yeast strain 334(pRAE-84) was grown in minimal media containing 25 μM of saturated, monounsaturated, or polyunsaturated fatty acids. […] When AA was added exogenously, the levels of product fatty acids were 0.5% (ADA) and 0.39% (TTA), and when ADA was added exogenously, the level of product fatty acid was 1.3% (TTA) of the total fatty acids in the strain containing the pRAE-84 sequence. […] MELO4p is also involved in the elongation of GLA to DGLA. The lipid profile of the strain containing the pRAE-84 sequence, in presence of GLA, had 0.43% of DGLA, which represented 14.7% conversion of GLA to DGLA. MELO4p is also involved in the elongation of n-3 PUFAs EPA and DPA (FIG. 53C). […] When EPA was added, the levels of these fatty acids were 1.21% (DPA) and 3.38% (TPA), and when DPA was added, the level of the product fatty acid was 3.09% (TPA) of the total fatty acids in the strain containing the pRAE-84 sequence. […] MELO4p is also involved in the elongation of STA to C22:4n-3. When STA was added, the levels of fatty acids produced by two-carbon elongation were 0.3% ETA and 0.23% C22:4n-3. […] MELO4p also appeared to be involved in the elongation of ALA; however, the small amount of the fatty acid produced by two-carbon elongation (0.16% of ETrA) may not be significant.

[4] = 25 μM STA added as a substrate, FIG. 88
[5] = 25 μM AA added exogenously, FIG. 57B
[6] = 25 μM ADA added exogenously, FIG. 57B
[7] = 25 μM DPA added, second experiment
[8] = 25 μM EPA added, second experiment
[9] = C22 substrate ADA added, 25 μM, FIG. 56
[10] = C22 substrate printed as EPA, 25 μM, FIG. 56

B1: TELO1: Thraustochytrium aureum 7091 elongase (SEQ ID NO:7) from plasmid pRAT-4-A7 (protein, listed as Thraustochytrium aureum)
chain: MANSSVWDDVVGRVETGVDQWMDGAKPYALTDGLPMMDVSTMLAFEVGYMAMLLFGIPIMKQMEKPFELKTIKLLHNLFLFGLSLYMCVETIRQAILGGYKVFGNDMEKGNESHAQGMSRIVYVFYVSKAYEFLDTAIMILCKKFNQVSFLHVYHHATIFAIWWAIAKYAPGGDAYFSVILNSFVHTVMYAYYFFSSQGFGFVKPIKPYITTLQMTQFMAMLVQSLYDYLFPCDYPQALVQLLGVYMITLLALFGNFFVQSYLKKPKKSKTN
conversion of AA to ADA (S. cerevisiae 334 [1]; 25 μM AA, FIG. 88): 3.5%
level of ADA, of the total fatty acids (S. cerevisiae 334 [1]; 25 μM AA, FIG. 88): 0.76%
conversion of ALA to ETrA (S. cerevisiae 334 [1]; 25 μM ALA, FIG. 88): 43.3%
level of ETrA, of the total fatty acids (S. cerevisiae 334 [1]; 25 μM ALA, FIG. 88): 2.71%
conversion of EPA to DPA (S. cerevisiae 334 [1]; 25 μM EPA, FIG. 88): 11.5%
level of DPA, of the total fatty acids (S. cerevisiae 334 [1]; 25 μM EPA, FIG. 88): 1.99%
conversion of GLA to DGLA (S. cerevisiae 334 [1]; 25 μM GLA, FIG. 88): 78.6%
level of DGLA, of the total fatty acids (S. cerevisiae 334 [1]; 25 μM GLA, FIG. 88): 5.84%
conversion of LA to C20:2n-6 (S. cerevisiae 334 [1]; 25 μM LA, FIG. 88): 23.2%
level of C20:2n-6, of the total fatty acids (S. cerevisiae 334 [1]; 25 μM LA, FIG. 88): 1.07%
conversion of ETA to DTA (S. cerevisiae 334 [1]; [4]): 15.0%
level of DTA (S. cerevisiae 334 [1]; [4]): 0.74%
conversion of STA to ETA (S. cerevisiae 334 [1]; 25 μM STA, FIG. 88): 85.3%
level of ETA, of the total fatty acids (S. cerevisiae 334 [1]; 25 μM STA, FIG. 88): 4.19%
levels of DPA (S. cerevisiae 334 [1]; EPA added as a substrate, 48 hours at 24° C., FIG. 81): significant levels of DPA

B2: MELO7: second mouse PUFA elongation enzyme (SEQ ID NO:6), homologue of HSELO1, expressed from pRAE-87 (protein, listed as Mus musculus)
chain: MEHFDASLSTYFKAFLGPRDTRVKGWFLLDNYIPTFVCSVIYLLIVWLGPKYMKNRQPFSCRGILQLYNLGLTLLSLYMFYELVTGVWEGKYNFFCQGTRSAGESDMKIIRVLWWYYFSKLIEFMDTFFFILRKNNHQITVLHVYHHATMLNIWWFVMNWVPCGHSYFGATLNSFIHVLMYSYYGLSSIPSMRPYLWWKKYITQGQLVQFVLTIIQTTCGVFWPCSFPLGWLFFQIGYMISLIALFTNFYIQTYNKKGASRRKDHLKGHQNGSVAAVNGHTNSFPSLENSVKPRKQRKD
amount of TPA (S. cerevisiae 334 [2]; DPA was added): 0.25%
amount of TPA (S. cerevisiae 334 [2]; EPA was the added substrate): 0.27%
conversion of AA to ADA (S. cerevisiae 334 [2]; substrate AA, FIG. 60): 36.0%
level of ADA, of the total fatty acids (S. cerevisiae 334 [2]; substrate AA, FIG. 60): 6.33%
elongation of ADA (S. cerevisiae 334 [2]; substrate ADA): not involved
conversion of EPA to DPA (S. cerevisiae 334 [2]; substrate EPA, FIG. 60): 57.4%
level of DPA, of the total fatty acids (S. cerevisiae 334 [2]; substrate EPA, FIG. 60): 6.18%
level of DGLA, of the total fatty acids (S. cerevisiae 334 [2]; substrate GLA, 42-48 hours at 30° C., FIG. 60): 4.1%
conversion of GLA to DGLA (S. cerevisiae 334 [2]; substrate GLA, FIG. 60): 78.7%
conversion of STA to ETA (S. cerevisiae 334 [2]; substrate STA, FIG. 60): 81.0%
level of ETA, of the total fatty acids (S. cerevisiae 334 [2]; substrate STA, FIG. 60): 3.4%

B3: MELO4: mouse PUFA elongation enzyme from brain cDNA (SEQ ID NO:5), expressed in yeast from pRAE-84 (protein, listed as Mus musculus)
chain: MEQLKAFDNEVNAFLDNMFGPRDSRVRGWFLLDSYLPTFILTITYLLSIWLGNKYMKNRPALSLRGILTLYNLAITLLSAYMLVELILSSWEGGYNLQCQNLDSAGEGDVRVAKVLWWYYFSKLVEFLDTIFFVLRKKTNQITFLHVYHHASMFNIWWCVLNWIPCGQSFFGPTLNSFIHILMYSYYGLSVFPSMHKYLWWKKYLTQAQLVQFVLTITHTLSAVVKPCGFPFGCLIFQSSYMMTLVILFLNFYIQTYRKKPVKKELQEKEVKNGFPKAHLIVANGMTDKKAQ
conversion of AA to ADA (S. cerevisiae 334 [3]; [5]): 8.7%
conversion of ADA to TTA (S. cerevisiae 334 [3]; [5]): 43.8%
level of ADA, of the total fatty acids (S. cerevisiae 334 [3]; [5]): 0.5%
level of TTA, of the total fatty acids (S. cerevisiae 334 [3]; [5]): 0.39%
conversion of AA to ADA (S. cerevisiae 334 [3]; 25 μM AA added, FIG. 56): 10.4%
conversion of ADA to TTA (S. cerevisiae 334 [3]; 25 μM AA added, FIG. 56): 62.6%
level of ADA, of the total fatty acids (S. cerevisiae 334 [3]; 25 μM AA added, FIG. 56): 0.64%
level of TTA, of the total fatty acids (S. cerevisiae 334 [3]; 25 μM AA added, FIG. 56): 1.07%
conversion of ADA to TTA (S. cerevisiae 334 [3]; [6]): 7.3%
level of TTA, of the total fatty acids (S. cerevisiae 334 [3]; [6]): 1.3%
level of ETrA (S. cerevisiae 334 [3]; 25 μM ALA, may not be significant): 0.16%
conversion of DPA to TPA (S. cerevisiae 334 [3]; [7]): 46.4%
level of TPA, of the total fatty acids (S. cerevisiae 334 [3]; [7]): 3.09%
conversion of DPA to TPA (S. cerevisiae 334 [3]; 25 μM EPA added, FIG. 56): 82.8%
conversion of EPA to DPA (S. cerevisiae 334 [3]; 25 μM EPA added, FIG. 56): 32.7%
level of DPA, of the total fatty acids (S. cerevisiae 334 [3]; 25 μM EPA added, FIG. 56): 1.47%
level of TPA, of the total fatty acids (S. cerevisiae 334 [3]; 25 μM EPA added, FIG. 56): 7.06%
conversion of DPA to TPA (S. cerevisiae 334 [3]; [8]): 73.6%
conversion of EPA to DPA (S. cerevisiae 334 [3]; [8]): 24.0%
level of DPA, of the total fatty acids (S. cerevisiae 334 [3]; [8]): 1.21%
level of TPA, of the total fatty acids (S. cerevisiae 334 [3]; [8]): 3.38%
elongation of GLA to DGLA (S. cerevisiae 334 [3]; 25 μM GLA, 42-48 hours at 30° C., FIG. 56): GLA was not elongated
conversion of GLA to DGLA (S. cerevisiae 334 [3]; 25 μM GLA, FIG. 57B): 14.7%
level of DGLA in lipid profile (S. cerevisiae 334 [3]; 25 μM GLA, FIG. 57B): 0.43%
conversion of ETA to C22:4n-3 (S. cerevisiae 334 [3]; 25 μM STA added): 43.4%
conversion of STA to ETA (S. cerevisiae 334 [3]; 25 μM STA added): 11.1%
level of C22:4n-3 (S. cerevisiae 334 [3]; 25 μM STA added): 0.23%
level of ETA (S. cerevisiae 334 [3]; 25 μM STA added): 0.3%
elongation of monounsaturated fatty acids PTA, OA, or EA (S. cerevisiae 334 [3]; 25 μM substrate): also not involved
elongation of saturated fatty acids PA, SA, ARA, or BA (S. cerevisiae 334 [3]; 25 μM substrate, FIG. 57A): not involved
conversion of ADA to TTA (S. cerevisiae 334 [3]; [9]): 9.2%
level of TTA, of the total fatty acids (S. cerevisiae 334 [3]; [9]): 2.4%
conversion of C22 substrate to TPA (S. cerevisiae 334 [3]; [10]): 43.9%
level of TPA, of the total fatty acids (S. cerevisiae 334 [3]; [10]): 3.82%
